# Where a chain is given by its changes, count along the chain named. Several values for one entry are separate records, joined by “and”; a condition that tells them apart may be missing. Equal values may be shown once.
# T1: SYCE2-TEX12core, labelled (UniProt Q6PIF2 57-165; Q9BXU0 49-123, labelled with the Monolith NT Protein Labelling Kit RED (which chain is not told) | labelled with the Monolith NT Protein Labelling Kit RED (which chain is not told))
# T1 construct: SYCE2 structural core; TEX12 structural core; source: E. coli BL21(DE3), purified
# T1 sequence (looked up) 1: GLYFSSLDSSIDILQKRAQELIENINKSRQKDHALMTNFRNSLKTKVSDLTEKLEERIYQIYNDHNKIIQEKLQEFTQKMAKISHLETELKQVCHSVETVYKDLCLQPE
# T1 sequence (looked up) 2: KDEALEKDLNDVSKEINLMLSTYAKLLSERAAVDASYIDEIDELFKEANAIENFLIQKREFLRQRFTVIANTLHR
# T2: SYCP1αN ΔNtip (UniProt Q15431 112-362)
# T2 construct: SYCP1αN (101-362) with the αNtip (amino-acids 101-111) deleted; also called SYCP1 ΔNtip; source: E. coli BL21(DE3), co-expressed with SYCE3, complex purified
# T2 sequence (looked up): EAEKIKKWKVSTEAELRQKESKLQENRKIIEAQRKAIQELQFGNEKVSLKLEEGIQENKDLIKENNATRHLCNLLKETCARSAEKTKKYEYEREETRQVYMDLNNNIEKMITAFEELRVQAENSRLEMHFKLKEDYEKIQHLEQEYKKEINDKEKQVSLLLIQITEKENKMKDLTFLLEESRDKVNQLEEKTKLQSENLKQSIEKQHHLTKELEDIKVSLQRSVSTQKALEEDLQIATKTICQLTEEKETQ
# T3: SYCP1αN V105E L109E (UniProt Q15431 101-362, V105E | L109E)
# T3 construct: SYCP1αN, amino-acids 101-362, with V105E L109E; source: E. coli BL21(DE3), complex with SYCE3
# T3 sequence (looked up): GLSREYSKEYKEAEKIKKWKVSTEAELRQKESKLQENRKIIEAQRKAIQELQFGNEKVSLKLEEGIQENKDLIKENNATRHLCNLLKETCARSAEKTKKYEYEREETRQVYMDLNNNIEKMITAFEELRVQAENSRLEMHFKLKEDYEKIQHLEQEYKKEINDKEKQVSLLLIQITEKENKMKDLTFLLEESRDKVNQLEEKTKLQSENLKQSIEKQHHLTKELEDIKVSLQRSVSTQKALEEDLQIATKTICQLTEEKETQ
# T4: MBP-SYCP1αN (UniProt Q15431 101-362)
# T4 construct: SYCP1αN, amino-acids 101-362; source: E. coli BL21(DE3), co-expressed with His-SYCE3, complex purified
# T4 sequence (looked up): T3 sequence (looked up) with E5V, E9L
# T5: MBP-SYCP1αNcore (UniProt Q15431 206-362)
# T5 construct: SYCP1 tetrameric core (αNcore), amino-acids 206-362; also called MBP-SYCP1 (amino-acids 206-362); source: E. coli BL21(DE3), co-expressed with SYCE3 constructs; in lysate for the pull-down, co-purified (amylose, anion exchange, SEC); not shown: MBP, N-terminal, kept
# T5 sequence (looked up): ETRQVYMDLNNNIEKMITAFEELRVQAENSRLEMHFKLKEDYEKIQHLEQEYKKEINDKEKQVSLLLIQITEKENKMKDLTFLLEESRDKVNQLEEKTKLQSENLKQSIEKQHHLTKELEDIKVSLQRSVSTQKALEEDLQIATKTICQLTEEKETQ
# B1: SYCE3 (natural protein, UniProt A1L190 1-88, looked up)
# chain: MDDADPEERNYDNMLKMLSDLNKDLEKLLEEMEKISVQATWMAYDMVVMRTNPTLAESMRRLEDAFVNCKEEMEKNWQELLHETKQRL
# notes: SYCE3, wild type; dimer alone by SEC-MALS; one chain in the 2:1 complex with SYCP1; also called SYCE3 wild-type; free SYCE3; source: alone or co-expressed with SYCP1 constructs; not shown: His, N-terminal, cleaved
# B2: His-SYCE3 (natural protein, UniProt A1L190 1-88, looked up)
# chain: B1 chain
# notes: SYCE3, wild type; SYCE3 1-88 (human) was cloned for the two-hybrid; also called SYCE3 wild-type (WT); source: E. coli BL21(DE3), co-expressed with MBP fusions; in lysate for pull-downs, co-purified (amylose, anion exchange, SEC); not shown: His, N-terminal, kept
# B3: SYCP1αN (domain or fragment, UniProt Q15431 101-362, looked up)
# chain: T3 sequence (looked up) with E5V, E9L
# notes: SYCP1 α-helical N-terminal region (αN), amino-acids 101-362; also called SYCP1's full α-helical N-terminal region (amino-acids 101-362); source: E. coli BL21(DE3), purified; alone or co-expressed with SYCE3
# B4: SYCP1 αCore-ΔNtip (domain or fragment, UniProt Q15431 112-783, looked up)
# chain: EAEKIKKWKVSTEAELRQKESKLQENRKIIEAQRKAIQELQFGNEKVSLKLEEGIQENKDLIKENNATRHLCNLLKETCARSAEKTKKYEYEREETRQVYMDLNNNIEKMITAFEELRVQAENSRLEMHFKLKEDYEKIQHLEQEYKKEINDKEKQVSLLLIQITEKENKMKDLTFLLEESRDKVNQLEEKTKLQSENLKQSIEKQHHLTKELEDIKVSLQRSVSTQKALEEDLQIATKTICQLTEEKETQMEESNKARAAHSFVVTEFETTVCSLEELLRTEQQRLEKNEDQLKILTMELQKKSSELEEMTKLTNNKEVELEELKKVLGEKETLLYENKQFEKIAEELKGTEQELIGLLQAREKEVHDLEIQLTAITTSEQYYSKEVKDLKTELENEKLKNTELTSHCNKLSLENKELTQETSDMTLELKNQQEDINNNKKQEERMLKQIENLQETETQLRNELEYVREELKQKRDEVKCKLDKSEENCNNLRKQVENKNKYIEELQQENKALKKKGTAESKQLNVYEIKVNKLELELESAKQKFGEITDTYQKEIEDKKISEENLLEEVEKAKVIADEAVKLQKEIDKRCQHKIAEMVALMEKHKHQYDKIIEERDSELGLYKSKEQEQSSLRASLEIELSNLKAELLSVKKQLEIEREEKEKLKREAKE
# notes: SYCP1 α-helical core without the αNtip, amino-acids 112-783; tetramer alone by SEC-MALS; also called SYCP1's full α-helical core, in which αNtips were deleted (amino-acids 112-783); source: E. coli BL21(DE3), purified; alone or in complex with SYCE3
# B5: SYCP1αNcore (domain or fragment, UniProt Q15431 206-362, looked up)
# chain: T5 sequence (looked up)
# notes: SYCP1 tetrameric core (αNcore), amino-acids 206-362; tetramer alone by SEC-MALS; two chains in the 2:1 complex with SYCE3; also called SYCP1 tetrameric core; SYCP1αNT; source: E. coli BL21(DE3), purified (amylose, TEV cleavage, anion exchange, SEC); alone or co-expressed with SYCE3; not shown: MBP, N-terminal, cleaved
# B6: SYCE3 12-88 (domain or fragment, UniProt A1L190 12-88, looked up)
# chain: DNMLKMLSDLNKDLEKLLEEMEKISVQATWMAYDMVVMRTNPTLAESMRRLEDAFVNCKEEMEKNWQELLHETKQRL
# notes: SYCE3 residues 12-88; source: E. coli BL21(DE3), co-expressed with SYCP1αNcore, complex purified
# Assays:
# [1] = molecular target: T1, SYCE2-TEX12core, labelled; test: MST; SYCE3 titrated (1:1 dilutions) into 150 nM labelled SYCE2-TEX12core; Monolith NT.115, premium treated capillaries, excitation and MST power 40 %; apparent; conditions: both partners purified
# SYCP1αNcore [2] = molecular target: B5; test: ITC; SYCE3 (400 µM) injected into SYCP1αNcore (70 µM); 30°C; 25 mM Tris pH 8.0, 250 mM KCl, 2 mM DTT; apparent; conditions: both partners purified
# SYCP1αNcore [3] = molecular target: B5; test: SEC-MALS; purified proteins or co-expressed, purified complexes at 5-20 mg/ml; Superdex 200 Increase 10/300 GL, 20 mM Tris pH 8.0, 150 mM KCl, 2 mM DTT; conditions: both partners purified
# SYCP1αN ΔNtip = molecular target: T2, SYCP1αN ΔNtip; test: as above; conditions: both partners purified
# SYCP1αN = molecular target: B3; test: as above; conditions: both partners purified
# [4] = molecular target: the molecule itself; test: as above
# SYCP1 αCore-ΔNtip = molecular target: B4; test: as above; conditions: both partners purified
# SYCP1αN V105E L109E = molecular target: T3, SYCP1αN V105E L109E; test: as above; conditions: both partners purified
# MBP-SYCP1αN = molecular target: T4, MBP-SYCP1αN; test: SEC-MALS; MBP-SYCP1αN-His-SYCE3 complex on a Superose 6 increase 10/300 GL column; conditions: both partners purified
# MBP-SYCP1αNcore = molecular target: T5, MBP-SYCP1αNcore; test: SEC-MALS; purified proteins or co-expressed, purified complexes at 5-20 mg/ml; Superdex 200 Increase 10/300 GL, 20 mM Tris pH 8.0, 150 mM KCl, 2 mM DTT; conditions: both partners purified
binder,measurement,setting,value
B1,Kd,[1],21.8 µM
same,Kd,SYCP1αNcore [2],0.17 µM
same,stoichiometry N,SYCP1αNcore [3],2 SYCP1 chains per SYCE3 chain
same,stoichiometry N,SYCP1αN ΔNtip,2 SYCP1 chains per SYCE3 chain
same,stoichiometry N,SYCP1αN,"2 SYCP1 chains per SYCE3 chain (2:1 species) and 2 SYCP1 chains per SYCE3 chain (4:2 species: 4 SYCP1, 2 SYCE3)"
same,stoichiometry N,[4],2
same,stoichiometry N,SYCP1 αCore-ΔNtip,2 SYCP1 chains per SYCE3 chain
same,stoichiometry N,SYCP1αN V105E L109E,2 SYCP1 chains per SYCE3 chain
B2,stoichiometry N,MBP-SYCP1αN,"2 SYCP1 chains per SYCE3 chain (2:1 species) and 2 SYCP1 chains per SYCE3 chain (4:2 species: 4 SYCP1, 2 SYCE3)"
same,stoichiometry N,MBP-SYCP1αNcore,2 SYCP1 chains per SYCE3 chain
B3,binding result,[4],binds
B4,stoichiometry N,[4],4
B5,stoichiometry N,[4],4
B6,stoichiometry N,SYCP1αNcore [3],2 SYCP1 chains per SYCE3 chain

# Reference: paper doi:10.1101/2022.03.06.483192, “Structural maturation of SYCP1-mediated meiotic chromosome synapsis through conformational remodelling by molecular adapter SYCE3” (bioRxiv, 2022)
